Substitutions are numbered along the chain they refer to. Each block holds one binder with its values, some of them ahead of it.
Experiments:
human c-Met-ECD-Fc-Flis [1] = target: T1, human c-Met-ECD-Fc-Flis (human); assay: SPR (BIAcore), antibody captured by goat anti-mouse Fc, c-Met-ECD-Fc-Flis as analyte, 25 C, 1:1 model, n=2
T1 construct: Expressed in CHO cells; also called c-Met-ECD with Fc and Flis tag; ECD of human c-MET

[2] = target: T2, RON on RON-transfected NIH 3T3 cells (UniProt Q04912 25-1400, limits assumed); assay: IHC on FFPE cell microarray (Dako EnVision FLEX+), manual reading by brightfield microscope
T2 construct: whole, on cells; Formalin-fixed paraffin-embedded cell pellets in IHC; also called RON transfected NIH3T3 Cell Line
Text: For staining human tumor cell lines, 60 million cells may be harvested, formalin-fixed, and processed into histogel. The histogel cell pellets may be embedded into paraffin blocks, cored, and designed into a cell microarray that may be re-embedded in a paraffin block and then microtomed onto slides. These slides may be immunohistochemically stained and counterstained using the IHC assay protocol as described above in Example 7. RON-transfected NIH 3T3 cells and mock NIH 3T3 cells (mouse embryonic fibroblasts) are used as non-c-MET expressing negative controls.

[3] = target: T3, ECD of human RON (R&D Systems, #1947-MS-050) (human, UniProt Q04912 25-957); assay: IHC pre-absorption/blocking: Antibody II at 2 microgram/mL incubated overnight with RON ECD, then used to stain slides
T3 construct: extracellular domain; Bought reagent; also called MST1R
Procedure: The antibody, or antigen-binding fragment thereof, of the present invention at 2 microgram/mL may be incubated overnight with either c-Met-ECD-Fc-Flis (SEQ ID NO: 23) or the ECD of human RON (R&D Systems, #1947-MS-050) at 200× molar excess on a rotator at 4° C. After overnight incubation, the antibody, or antigen-binding fragment thereof, of the present invention may be tested against slides of human tissue or cancer cell lines as described above in Example 6.

human c-Met-ECD-Fc-Flis [4] = target: T1, human c-Met-ECD-Fc-Flis; assay: SPR (BIAcore)

T1 sequence (chain, as listed by the source limits assumed): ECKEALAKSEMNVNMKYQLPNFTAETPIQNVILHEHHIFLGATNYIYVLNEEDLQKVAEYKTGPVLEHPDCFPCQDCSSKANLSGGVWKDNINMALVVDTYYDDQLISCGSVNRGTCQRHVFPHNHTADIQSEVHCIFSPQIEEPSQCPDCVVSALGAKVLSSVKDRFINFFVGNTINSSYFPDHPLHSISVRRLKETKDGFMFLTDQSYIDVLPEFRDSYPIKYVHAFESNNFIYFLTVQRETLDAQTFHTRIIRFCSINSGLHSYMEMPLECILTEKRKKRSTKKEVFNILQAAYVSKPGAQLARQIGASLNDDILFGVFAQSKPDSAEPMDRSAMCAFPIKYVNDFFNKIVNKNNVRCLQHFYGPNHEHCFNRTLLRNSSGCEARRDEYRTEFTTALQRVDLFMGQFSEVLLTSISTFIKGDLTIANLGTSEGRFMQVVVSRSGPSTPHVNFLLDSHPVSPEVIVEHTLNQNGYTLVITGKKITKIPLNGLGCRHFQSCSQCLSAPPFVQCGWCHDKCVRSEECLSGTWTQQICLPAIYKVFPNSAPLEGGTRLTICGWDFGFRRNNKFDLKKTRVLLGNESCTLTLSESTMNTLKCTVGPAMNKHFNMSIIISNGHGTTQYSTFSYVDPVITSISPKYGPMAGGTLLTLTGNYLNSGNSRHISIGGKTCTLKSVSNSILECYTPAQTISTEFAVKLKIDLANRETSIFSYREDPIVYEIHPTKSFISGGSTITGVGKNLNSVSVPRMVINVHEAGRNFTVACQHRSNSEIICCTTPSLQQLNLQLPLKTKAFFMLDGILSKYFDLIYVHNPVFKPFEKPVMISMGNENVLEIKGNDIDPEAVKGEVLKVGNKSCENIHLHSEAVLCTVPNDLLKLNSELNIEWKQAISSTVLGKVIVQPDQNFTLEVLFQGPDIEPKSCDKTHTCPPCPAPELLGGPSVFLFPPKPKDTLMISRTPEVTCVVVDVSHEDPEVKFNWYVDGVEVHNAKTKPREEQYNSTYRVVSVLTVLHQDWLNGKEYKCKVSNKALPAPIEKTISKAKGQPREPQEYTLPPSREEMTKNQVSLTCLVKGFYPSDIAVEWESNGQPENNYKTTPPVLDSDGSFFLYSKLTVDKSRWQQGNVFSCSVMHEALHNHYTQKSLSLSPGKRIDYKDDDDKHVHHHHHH

Kd (human c-Met-ECD-Fc-Flis [1]): 2.47 nM
koff (human c-Met-ECD-Fc-Flis [1]): 0.000302 s⁻¹
kon (human c-Met-ECD-Fc-Flis [1]): 123000 M⁻¹ s⁻¹
B1: Antibody I (antibody, V domains shown)
VH: EVQLQQSGTVLARPGASVKMSCKASGYSFTSYWMYWVKQRPGQGLEWIGGFHPGNSGTNYNQKFKGKAKLTAVTSASTAYMELSSLTNEDSAVYYCTRGYYYDGSFTYWGQGTLVTVSA
VL: EIQMTQSPASLSASVGETVTITCRASENIYSYLAWYQRKQGRSPQLLVYNAKPLAEGVPSRFSGSGSGTQFSLKINSLQPEDFGTYYCQHHYGTPFTFGSGTRLEIKR
notes: Captured by anti-mouse Fc and detected with anti-mouse IgG; also called R-PE-Antibody I (R-phycoerythrin conjugate used in the CTC assay)

Kd (human c-Met-ECD-Fc-Flis [1]): 0.37 nM
koff (human c-Met-ECD-Fc-Flis [1]): 4.6e-05 s⁻¹
kon (human c-Met-ECD-Fc-Flis [1]): 125000 M⁻¹ s⁻¹
binding result [2]: no binding (tested: 2 µg/mL)
binding result [3]: no binding (tested: 200× molar excess)
fold binding affinity compared to Antibody I (human c-Met-ECD-Fc-Flis [4]): > 5 fold
B2: Antibody II (antibody, V domains shown)
VH: B1 VH with G54R
VL: B1 VL
notes: also called R-PE-Antibody II (R-phycoerythrin conjugate used in the CTC assay); Antibody II (Anti-cMET)

Source: patent publication US20150118238A1 (Eli Lilly, published 2015)
